Target: Nb9-R59A (alpaca)
Experiment: BLI

Sequence of Nb9-R59A (alpaca) (heavy, as listed by the source): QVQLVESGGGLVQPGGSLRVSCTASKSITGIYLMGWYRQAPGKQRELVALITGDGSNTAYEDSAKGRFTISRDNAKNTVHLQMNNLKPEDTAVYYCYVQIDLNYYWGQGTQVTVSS

Substance: MERS-CoV RBD (from UniProt K9N5Q8) (domain or fragment)
- Kd: 4.58 µM
- koff: 0.0624 s⁻¹
- kon: 13600 M⁻¹ s⁻¹

— article PMC11324105
